From patent US20100280227A1

Molecular target: human BAFF (residues 82-285) (human) (UniProt Q9Y275)
Assay: BJAB cell competitive binding assay: soluble BR3-Fc keeps biotin-BAFF from BR3 on the cells

Sequence of human BAFF (residues 82-285) (human) (Q9Y275 82-285 limits assumed): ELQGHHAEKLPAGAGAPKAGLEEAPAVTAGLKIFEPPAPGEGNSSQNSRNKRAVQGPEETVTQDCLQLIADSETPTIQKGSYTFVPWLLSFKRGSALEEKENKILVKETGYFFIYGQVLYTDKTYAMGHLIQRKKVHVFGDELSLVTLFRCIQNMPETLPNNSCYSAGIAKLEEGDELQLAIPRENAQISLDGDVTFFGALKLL

IC50: 3.22 nM
Substance: hBR3Fc (Fc fusion)
